Experimental data from publication PMC6695453, “Peptide translocation by the lysosomal ABC transporter TAPL is regulated by coupling efficiency and activation energy” (Scientific Reports, 2019).
Bridge positions count the residues as written; N and C are the ends. Side chains are listed from the residue outwards. Ends that are not written are not given here. Peptide text beside a SMILES is read from it. I, II: the chains in the order shown.

How the values were obtained:
TAPL [1] = biological target: T1, TAPL (Homo sapiens, UniProt Q9NP78); experiment: Peptide transport into TAPL proteoliposomes; format: biochemical; conditions: 15 min, 37 °C
T1 construct: Human coreTAPL (Q9NP78 UniProt, amino acid 143–766) fused C-terminally to mVenus; made in house; host or cells: Pichia pastoris SMD1168-His+
T1 sequence (Q9NP78 143-766): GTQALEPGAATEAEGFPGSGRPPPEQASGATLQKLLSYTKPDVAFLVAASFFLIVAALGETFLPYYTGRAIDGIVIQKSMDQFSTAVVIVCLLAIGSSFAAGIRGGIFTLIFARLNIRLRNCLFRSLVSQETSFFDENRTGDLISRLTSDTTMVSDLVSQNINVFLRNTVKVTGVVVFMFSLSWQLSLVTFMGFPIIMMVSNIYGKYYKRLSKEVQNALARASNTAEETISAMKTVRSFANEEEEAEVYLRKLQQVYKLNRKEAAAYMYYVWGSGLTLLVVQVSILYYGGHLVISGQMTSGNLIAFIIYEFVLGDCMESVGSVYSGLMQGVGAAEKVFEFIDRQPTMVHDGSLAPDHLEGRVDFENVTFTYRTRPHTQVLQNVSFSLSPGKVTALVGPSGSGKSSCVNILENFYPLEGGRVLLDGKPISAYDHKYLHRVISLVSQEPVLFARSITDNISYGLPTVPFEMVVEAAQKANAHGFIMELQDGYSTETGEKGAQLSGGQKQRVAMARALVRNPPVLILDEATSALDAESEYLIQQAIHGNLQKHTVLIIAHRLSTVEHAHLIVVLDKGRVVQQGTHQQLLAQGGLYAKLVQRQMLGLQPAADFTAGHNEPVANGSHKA
Description: (A) Proteoliposomes (0.5 mg/ml lipids) were incubated with 10 µM of 9-mer^FL peptide and 3 mM ATP, 3 mM ADP, without any nucleotide (−) or with 3 mM ATP in the presence of ortho-vanadate (Vi, 500 µM). […] […] Transport was performed in triplicates with error bars indicating SD.
CoreTAPL fused C-terminally to mVenus was produced in P. pastoris by large scale expression in a 7.5 liter Labfors4 reactor (Infors HT, Einsbach, Germany) by fed batch method and cell pellets were stored at −80 °C[14],[44]. Core[…] fused C-terminally to mVenus was produced in P. pastoris in Erlenmeyer flasks. TmrAB from T. thermophilus was expressed in Escherichia coli and cell pellets were stored at −80 °C[30]. CoreTAPL and TmrAB were purified and reconstituted (40:1 (wt/wt) lipid to protein) as described into unilamellar liposomes composed of E. coli polar lipids and DOPC (7:3 (wt/wt); Avanti Polar Lipids), which were ultrasonicated, five times frozen and thawed and extruded through a 400 nm polycarbonate filter (Avestin, Mannheim, Germany)[13],[14],[30]. Proteoliposomes were snap frozen in liquid nitrogen and stored at −80 °C. […] Concentration of coreTAPL and core[…] was determined by specific absorption of mVenus (ε515 = 45.950 M^−1cm^−1). For calculation of TmrAB concentration ε280 = 159.630 M^−1cm^−1 was applied.

TAPL [2] = biological target: T1, TAPL; experiment: NTP hydrolysis by TAPL, malachite green based assay; format: biochemical
Description: Kinetics were recorded under steady-state conditions in which peptide accumulation in proteoliposomes is far below saturation (Figs S2,S5).
ATP hydrolysis was determined by malachite green based assay in the absence or presence of 100 µM peptide (filled bar) or ortho-vanadate (500 µM, white bar) (A) or with increasing peptide concentrations (B). Hydrolysis rates of 16-mer and 18-mer peptide were fitted with equation 6. IC50 values, Hill coefficients and kcat are depicted in Table 1. […] All experiments were performed in triplicates, error bars indicate SD.
The reaction was started by the addition of NTP. Background and autohydrolysis were determined with 500 µM ortho-vanadate or in the absence of protein, respectively. Hydrolysis was stopped by the addition of 20 mM H2SO4, supplemented with malachite green solution (3 mM malachite green, 0.2% (v/v) Tween 20, 1.5% (w/v) ammoniummolybdate) and absorption was detected after 10 min incubation at room temperature at 620 nm using a microplate reader (CLARIOstar, BMG LABTECH). IC50 values for peptides were determined by6 v=vmin+vmax−vmin/1+10^(LOGIC50−[I])⋅n where v represents the peptide inhibitor [I] dependent hydrolysis rate, vmax the maximal hydrolysis rate in the absence of peptide, vmin the minimal hydrolysis rate at saturating peptide concentrations and n the Hill slope. IC50 represents the half maximal inhibitory peptide concentration.

Pdr5 = conditions: cited from earlier work
Description: Both nucleotides show the same Km and kcat values in respect of NTP hydrolysis. […] NTP dependent transport was found also for other ABC transporters. […] The full-length ABC transport Pdr5 from yeast hydrolyzes GTP and even UTP, but ...

TAPL [3] = biological target: T1, TAPL; experiment: NTP dependent peptide transport by TAPL; format: biochemical; conditions: 37 °C
Description: Subsequently, we performed Michaelis-Menten kinetics of 9-mer peptide (100 µM) transport using increasing ATP and GTP concentrations. […] Additionally, we quantified the nucleotide hydrolysis kinetics of ATP and GTP in the presence and absence of the 9-mer peptide. […] Moreover, we assume a subtle difference in the cross-talk between the nucleotide binding domain and the transmembrane domain, which is caused by the type of purine base.
(A) NTP dependent peptide transport was performed with 9-mer^FL peptide (100 µM). (B) NTP hydrolysis was analyzed in the presence of 9-mer peptide (100 µM) by radioactive based assay. Experiments were performed in triplicates, error bars indicate SD.

MRP1 = conditions: cited from earlier work
Description: Other ABC transporters like P-glycoprotein have a biphasic substrate dependent ATPase activity. […] Basal ATPase activity of MRP1 is 3-fold stimulated by its substrate leucotriene C4, which forms contacts to both halfs o ...

[4] = test system: Nc1ncnc2c1ncn2[C@@H]1O[C@H](COP(=O)(O)OP(=O)(O)OP(=O)(O)O)[C@@H](O)[C@H]1O; experiment: purified protein, by the assay type; conditions: other: 68 °C, 10 min, 9-mer^FL peptide (30 µM), triplicates, SD
[5] = test system: Nc1nc2c(ncn2[C@@H]2O[C@H](COP(=O)(O)OP(=O)(O)OP(=O)(O)O)[C@@H](O)[C@H]2O)c(=O)[nH]1; experiment: purified protein, by the assay type; conditions: other: 68 °C, 10 min, 9-mer^FL peptide (30 µM), triplicates, SD
[6] = biological target: T2, coreTAPL (core complex of the transporter associated with antigen processing-like, ABCB9) fused C-terminally to mVenus (human) (UniProt Q9NP78)
T2 sequence: T1 sequence (Q9NP78 143-766)

[7] = biological target: T3, coreTAPL (core complex of the transporter associated with antigen processing-like, ABCB9) fused C-terminally … (human, UniProt Q9NP78 143-766); experiment: MST; 100 nM 9-mer^Atto-655 peptide with increasing TAPL concentrations; 20 mM HEPES, 140 mM NaCl, 0.05% DDM, 15% glycerol, pH 7.5; 22 °C; one-site binding model; conditions: both partners purified
T3 construct: TAPL (ABCB9), human, core complex without TMD0, amino acids 143-766 of UniProt Q9NP78; source: reconstituted into proteoliposomes for transport and ATPase assays; not shown: mVenus, C-terminal, kept
T3 sequence (looked up): T1 sequence (Q9NP78 143-766)

[8] = biological target: T2, coreTAPL (core complex of the transporter associated with antigen processing-like, ABCB9) fused C-terminally to mVenus (human); remark: listed apart in the source
[9] = biological target: T2, coreTAPL (core complex of the transporter associated with antigen processing-like, ABCB9) fused C-terminally to mVenus (human); remark: listed apart in the source
[10] = biological target: T3, coreTAPL (core complex of the …); experiment: MST; competition: 100 nM 9-mer^Atto-655 peptide and 10 µM TAPL with unlabeled competitor peptide (18-mer titrated; 9-mer at 4 mM); 22 °C; Ki fitted considering competitor depletion; conditions: both partners purified
[11] = biological target: T3, coreTAPL (core complex of the …); experiment: cell-based or functional assay

In the case of `CC(C)C[C@H](NC(=O)[C@H](CCC(=O)O)NC(=O)[C@@H](NC(=O)[C@H](CO)NC(=O)[C@H](CCCCNC(=O)[C@H](CCCCN)NC(=O)[C@H](CCCCN)NC(=O)[C@H](CCCCN)NC(=O)[C@H](CCCCN)NC(=O)[C@H](CCCCN)NC(=O)[C@H](CCCCN)NC(=O)[C@H](CCCCN)NC(=O)[C@@H](N)CCCCN)NC(=O)[C@H](CS)NC(=O)[C@H](Cc1ccc(O)cc1)NC(=O)[C@@H](N)CCCNC(=N)N)[C@@H](C)O)C(=O)O` [16-mer, RYCK(K8)STEL] (I: H-KKKKKKKK / II: H-RYCKSTEL-OH; amide I:C-II:4; N-terminus assumed), the “kcat(Pep) turnover number of peptide transport” value (TAPL [1]; proteoliposomes, 3 mM ATP, pH 7.5, fluorescein labeled (FL) peptides used, triplicates, SD, listed as 16-mer^FL) is reported as 0.25 min⁻¹, the “ATP per translocated peptide” value (TAPL [2]; ATP hydrolysis at saturating peptide divided by peptide transport turnover) is reported as 100 ATP per translocated peptide and the “Hill slope of ATP hydrolysis inhibition” value (TAPL [2]; proteoliposomes, 3 mM ATP, 15 min, 37 °C, malachite green, unlabeled peptides) is reported as −2.09 ± 0.73. For the same molecule, the “kcat(ATP) rate constant of ATP hydrolysis” value (TAPL [2]; under saturating peptide concentration, 3 mM ATP, 15 min, 37 °C, malachite green, unlabeled peptides) was 22 ± 4 min⁻¹.

In the case of `Nc1ncnc2c1ncn2[C@@H]1O[C@H](COP(=O)(O)OP(=O)(O)OP(=O)(O)O)[C@@H](O)[C@H]1O` [ATP], the “nucleotide hydrolysis by Pdr5 (in words)” value (Pdr5; GTP, UTP, ATP) is given as “highest efficiency” and the “fold turnover number of peptide transport, ATP over GTP” value (TAPL [3]; ATP vs GTP, 9-mer peptide (100 µM)) is given as 6 fold.

In the case of `Clc1ccccc1C(c1ccccc1)(c1ccccc1)n1ccnc1` [clotrimazole], the “effect on Pdr5 ATPase activity (in words)” value (Pdr5; ATP hydrolysis) is given as “inhibited” and the “effect on Pdr5 GTP and UTP hydrolysis (in words)” value (Pdr5; GTP and UTP hydrolysis) is given as “not affected”.

In the case of `CCCCC/C=C\C\C=C/C=C/C=C/[C@@H](SC[C@H](NC(=O)CC[C@H](N)C(=O)O)C(=O)NCC(=O)O)[C@@H](O)CCCC(=O)O` [leucotriene C4], the “fold stimulation of basal ATPase activity” value (MRP1) is listed as 3 fold.

In the case of `[O]=[V]([O-])([O-])[O-]` [ortho-vanadate], the “inhibition of ATP dependent peptide translocation (in words)” value (TAPL [1]; ortho-vanadate 500 µM, 3 mM ATP, 10 µM 9-mer^FL) is reported as “specifically inhibited”, the “inhibition of GTP dependent peptide transport (in words)” value (TAPL [3]; ortho-vanadate 500 µM, 3 mM GTP, 10 µM 9-mer^FL, 15 min) is reported as “inhibited” and the “effect on basal ATP hydrolysis (in words)” value (TAPL [2]; 3 mM ATP, 15 min, 37 °C, malachite green, peptide up to 100 µM or ortho-vanadate 500 µM) is reported as “blocked”. The “effect on GTP hydrolysis (in words)” value (TAPL [2]; 3 mM GTP, 15 min, 37 °C, malachite green, 9-mer peptide 100 µM or ortho-vanadate 500 µM) was “inhibited”.

With “RRYC^FluoresceinKSTEL [9-mer^FL, fluorescein labeled 9-mer peptide]” the Km (TAPL [1]; read-out: Km(Pep) of 9-mer transport with GTP, 3 mM GTP, proteoliposomes, triplicates, SD) was 4.4 ± 0.8 µM.

For RRYQKSTELRRYQKSTEL [18-mer], the “reduction of ATP hydrolysis” value (TAPL [2]; 100 µM peptide, 3 mM ATP, 15 min, 37 °C, vs absence of peptide) was 50%.

For TmrAB (Thermus thermophilus HB27), the Km ([4]; radioactive assay) was 661 ± 176 µM, the kcat ([4]; radioactive assay) was 2.25 ± 0.217 s⁻¹ and the Km ([4]; pH 7.5) was 782 ± 213 µM. For the same molecule, the kcat ([4]; pH 7.5) was 0.105 ± 0.01 s⁻¹, the Km ([5]; radioactive assay) was 617 ± 144 µM and the kcat ([5]; radioactive assay) was 2.47 ± 0.2 s⁻¹. For the same molecule, the Km ([5]; pH 7.5) was 391 ± 136 µM and the kcat ([5]; pH 7.5) was 0.0167 ± 0.00167 s⁻¹.

Work on RYCK([Lys-Lys-Lys-Lys-Lys-Lys-Lys-Lys])STEL (also: octa-lysine attached by isopeptide bonds) [branched 16-mer peptide RYCK(K8)STEL] yielded an IC50 of inhibition of ATP hydrolysis of reconstituted TAPL by peptide (malachite green assay, 3 mM ATP, 37 °C) [6] of 22 µM.

B1: Atto-655 labeled 9-mer peptide RRYC^Atto-655KSTEL (peptide)
peptide: RRYC(Atto‑655 maleimide)KSTEL
notes: source: synthetic peptide (solid phase synthesis)
B1 gave a Kd [7] of 5.4 ± 0.8 µM.

For RRYC(5‑iodoacetamidofluorescein)KSTEL [fluorescein labeled 9-mer peptide RRYC^FluoresceinKSTEL], the K (m(Pep)) of peptide transport into TAPL proteoliposomes, 3 mM ATP, 15 min, 37 °C [6] was 15 µM, the K (m(Pep)) of 9-mer^FL peptide transport into TAPL proteoliposomes at 24 °C, 3 mM ATP [8] was 10.8 µM and the K (m(Pep)) of 9-mer^FL peptide transport into TAPL proteoliposomes at 33 °C, 3 mM ATP [8] was 15.3 µM. It also gave a K (m(Pep)) of 9-mer^FL peptide transport into TAPL proteoliposomes at 42 °C, 3 mM ATP [8] of 17.3 µM and a K (m(pep)) of 9-mer transport into TAPL proteoliposomes in the presence of 3 mM GTP [9] of 4.4 µM.

For RYC(5‑iodoacetamidofluorescein)K([Lys-Lys-Lys-Lys-Lys-Lys-Lys-Lys])STEL (also: octa-lysine attached by isopeptide bonds) [fluorescein labeled branched 16-mer peptide RYCK(K)8STEL], the K (m(Pep)) of peptide transport into TAPL proteoliposomes, 3 mM ATP, 15 min, 37 °C [6] was 8 µM.

Work on RRYQKSTELRRYC(5‑iodoacetamidofluorescein)KSTEL [fluorescein labeled 18-mer peptide …] yielded a K (m(Pep)) of peptide transport into TAPL proteoliposomes, 3 mM ATP, 15 min, 37 °C [6] of 7 µM.

B2: 18-mer peptide RRYQKSTELRRYQKSTEL (peptide)
peptide: RRYQKSTELRRYQKSTEL
notes: also called unlabeled 18-mer peptide; source: synthetic peptide (solid phase synthesis; Charité, Berlin)
With B2 the Ki [10] was 11.8 ± 3.6 µM and the “IC50 of inhibition of ATP hydrolysis of reconstituted TAPL by peptide (malachite green assay, 3 mM ATP, 37 °C)” value [11] was 15 µM.
